What was measured:
A3G-H248A/H250A-Myc-His = A3G-H248A/H250A-Myc-His (human, UniProt Q9HC16 1-384, H248A;H250A); test: EMSA
APOBEC3G (A3G-Myc-His) = APOBEC3G (A3G-Myc-His) (human, UniProt Q9HC16 1-384); test: EMSA
APOBEC3G (A3G-Myc-His), sequence (Q9HC16 whole entry): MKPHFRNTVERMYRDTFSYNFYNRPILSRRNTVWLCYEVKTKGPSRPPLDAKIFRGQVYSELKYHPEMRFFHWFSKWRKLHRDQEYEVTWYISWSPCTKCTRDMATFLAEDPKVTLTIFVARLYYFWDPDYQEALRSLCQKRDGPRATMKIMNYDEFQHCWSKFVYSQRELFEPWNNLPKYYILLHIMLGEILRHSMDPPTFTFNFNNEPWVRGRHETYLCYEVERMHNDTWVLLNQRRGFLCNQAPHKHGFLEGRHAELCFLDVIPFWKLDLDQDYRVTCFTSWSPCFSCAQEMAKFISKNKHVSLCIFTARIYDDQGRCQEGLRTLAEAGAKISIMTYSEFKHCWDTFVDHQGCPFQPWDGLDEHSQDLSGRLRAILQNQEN

A3G-H248A/H250A-Myc-His, sequence (Q9HC16 whole entry H248A/H250A): as the sequence (Q9HC16 whole entry) above, with H248A, H250A counted along it

B1: 43-nt ssDNA (ssDNA)
DNA: ATTATTATTATTCCAATGGATTTATTTATTTATTTATTTATTT
B1: binds (A3G-H248A/H250A-Myc-His); binds (APOBEC3G (A3G-Myc-His)).

From publication PMC3030345
